Biological target: Desulfofustis deltaproteobacterium ligand-gated ion channel (DeCLIC) (Desulfofustis deltaproteobacterium)
Assay: cryo-EM structure; DeCLIC in DDM detergent micelles, pH 7, two datasets: with 10 mM Ca2+ and Ca2+-free (chelated); C5 symmetry; homopentamer

stoichiometry N: 5
Substance: Desulfofustis deltaproteobacterium ligand-gated ion channel (DeCLIC) (natural protein)

Source: paper PMC9897478
